The values that follow come from paper PMC10323247.

Experiment [1] addresses GMPCPP- and Taxol-stabilised TAMRA-labelled microtubules of porcine brain tubulin (porcine) (UniProt P02550). The experiment in a line: TIRF microscopy binding assay; 1 nM GFP-augmin on surface-attached TAMRA-microtubules with importin α, importin β (25-400 nM) or importin α/β (25-100 nM each), with or without 3.5 μM RanQ69L; BRB80 binding buffer; 30°C.
Experiment [2] concerns the target recombinant human augmin complex (GFP-augmin), all eight full-length subunits HAUS1-HAUS8 (human) (UniProt Q96CS2). Put plainly: single-molecule TIRF fluorescence intensity analysis; GFP-augmin particles diffusing on microtubules; particle intensity divided by the intensity of single mGFP-augmin particles (photobleaching experiment). The note with it: remark: other sources report otherwise.

For the substance “recombinant human augmin complex (GFP-augmin), all eight full-length subunits HAUS1-HAUS8 (from UniProt Q96CS2-1 1-278; Q9NVX0-1 1-235; Q68CZ6-1 1-603; Q9H6D7-1 1-363; O94927-1 1-633; Q7Z4H7-1 1-955; Q99871-1 1-358; Q9BT25-1 1-410)”, in experiment [1], the median background-corrected fluorescence intensity on microtubules with 100 nM importin α/β and 3.5 µM RanQ69L is 338; the median background-corrected fluorescence intensity on microtubules with 400 nM importin β and 3.5 µM RanQ69L was found to be 273; the median background-corrected fluorescence intensity on microtubules, control without importin came out at 321.

Consider “recombinant human augmin complex (GFP-augmin), all eight full-length subunits HAUS1-HAUS8, Q96CS2-1 1-278; Q9NVX0-1 1-235; Q68CZ6-1 1-603; Q9H6D7-1 1-363; O94927-1 1-633; Q7Z4H7-1 1-955; Q99871-1 1-358; Q9BT25-1 1-410”, for which, in experiment [2], the stoichiometry N (in general, the number of molecules, sites or subunits per partner or assembly) is less than 10.
